The source of these data is the nanobody polyreactivity screen of Harvey et al. (2022).

This data set in a line: yeast display, Sf9 membrane polyspecificity reagent, FACS + sequencing; frameworks hold sequencing errors. The method, boiled down: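 After 36–48 hours of galactose induction, yeast (Saccharomyces cerevisiae BJ5465) displaying a synthetic nanobody library were stained at 4 °C for 1 hour with 10% biotinylated, detergent-solubilized Sf9 membrane reagent. Streptavidin microbeads enriched the stained cells before FACS sorting into low and high (top ~1%) gates on anti-HA and streptavidin fluorescence. Each clone's polyreactivity label reflects its gate of origin.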
For the sequence “QVQLVESGGGLVQAGGSLRLSCAATGRSFVHKAMGWYRQAPGKERELVAAISRGGSTYYADSVKGRFTISRDNAKNTVYLQMNSMKPEDTAVYYCAKERRYTGRRSYEFNYWGQGTHVTVSS”, the “polyreactivity (PSR sort gate)” value is “low polyreactivity”.

“QVQLVESGGGLVQAGGSLRLSCAATGRSFVLNAMGWYRQAAGKERELVATINYSGSSTYYADSVKGRFTISRDNAKNTVYLQMNSLKPEDTAVYYCNRDVPYRLVYYANYYWGHGTQVTVSS”: the “polyreactivity (PSR sort gate)” value is “low polyreactivity”.

With “QVQLVESGGGLVQAGGSLRLSCAATGRTFYVNAMGWYRQAPGLEREFVARITSGGSTYYADSVKGRFTISPDKAKNTVYVQKNSLKPEDTAVYYCAADYVSLSVFSYCAWYDYWGQGTQVTVSS”, the “polyreactivity (PSR sort gate)” value is given as “low polyreactivity”.

“QVQLVESGGGLVQAGGSLRLSCAATGRTFYWNAMGWYRQAPGKERELVAAIDSSGGSTYYADSVKGRFTISRDNAKNTVYLQMNSLKPEDTAVYYCNKDYPTYDYDYWGQGTQVTVSS”: the “polyreactivity (PSR sort gate)” value is on record as “low polyreactivity”.

With “QVQLVESGGGLVQAGGSLRLSCAATGSIFQSYAMGWYRQAPGKERELVAAITARGTSTYYADSVKGRFTISRDNAKNTVYLQMNSLKPEETAVYYCNTDRSRSPGDVESPSDIKRDYWGQGTQVTVSS”, the “polyreactivity (PSR sort gate)” value is “low polyreactivity”.

“QVQLVESGGGLVQAGGSLRLSCAATGSIFRRYAMGWYGQAPGKERELVAAISWSGGSTYYADSVKGRFTISRDNAKNTVYLQMNSLKPEDTAVYYCAARHRQQKLDYWGQGTQVTVSS”: the “polyreactivity (PSR sort gate)” value is “high polyreactivity”.

With “QVQLVESGGGLVQAGGSLRLSCAATGSIFYFNAMGWYRKAPGKERELVADISGSGGSTYYADSVKGRFTISRDNAKNTVYLQMNSLKPEDTAVYYCAARLYLHSWWYYAYDYWGQGTQVTVSS”, the “polyreactivity (PSR sort gate)” value is “high polyreactivity”.

Turning to “QVQLVESGGGLVQAGGSLRLSCAATGSIIVYNTMGWYRQAPGKERELVAAITVRDDSTYYADSVKGRFTISRDNAKNTVYLQMNSLKPEDTAVYYCNARGNFLIGRDYWGQGTQVTVSS”, the “polyreactivity (PSR sort gate)” value is reported as “low polyreactivity”.

On to “QVQLVESGGGLVQAGGSLRLSCAATGSIYSYAMGWNRQAPGKERELVAAISRSGGRTYYADSVKGRFTISRDNAKNTVYLQMNSLKPEDTAVYYCAADGYSAKYYPGGDYWGQGTQVTVSS”, for which the “polyreactivity (PSR sort gate)” value was “high polyreactivity”.

Take “QVQLVESGGGLVQAGGSLRLSCAATGSTFYQYALGWYRQAPGKERELVAAISSRGTSTYYADSVKGRFTISRDNAKNTVYLQMNSLKPEDTAVYYCATEYTNWHRTWSLQTGGYGYWGQGTQGTVSS”: the “polyreactivity (PSR sort gate)” value is reported as “high polyreactivity”.

Consider “QVQLVESGGGLVQAGGSLRLSCAATRRIFRRNPMGWYIQAPGKERELVATISANGGSTYYADSVKGRFTISRDNAKNTVYLQMNSLKPEATAVYYCAAQGWSWYWYQKIYYWGQGTQVTVSS”, for which the “polyreactivity (PSR sort gate)” value is reported as “high polyreactivity”.

For the sequence “QVQLVESGGGLVQAGGSLRLSCAATRSTSSKYAMGWYRQAPGKERELVAAITRSGGRTYYAVSVMGRFTISRDYAKNTVYLQMNSLKPEDTAVYYCAAAGVYWEFDYWGQGTQVTVSS”, the “polyreactivity (PSR sort gate)” value was “high polyreactivity”.

For the sequence “QVQLVESGGGLVQAGGSLRLSCAAYGFIFKKYAMGWYRQAPGKERELVAAISGSSTRTYYADSVKGRFTISRDNAKKTVYLQMHSLKPEDTAVYYCVGRFYERDYWGQGTQVTVSS”, the “polyreactivity (PSR sort gate)” value is on record as “high polyreactivity”.

On to “QVQLVESGGGLVQAGGSLRLSCAAYGFTCPLNAMGWYRQAPGKERELVAAISGSSGSTYYADSVKGRFTISRDNAKNTVYLQMNSLKPEDTAVYYCAKKYAWRYYYWGQGTQVTVSS”, for which the “polyreactivity (PSR sort gate)” value is “high polyreactivity”.

Consider “QVQLVESGGGLVQAGGSLRLSCAAYGFTFGVYALGWYRQAPGKERELVAAISRIGGRTYYADSLKGRYTISRDNAKNTVYVQMNSLKPEDTAVYYCAESPRQGMYYWGQGTQVTVSS”, for which the “polyreactivity (PSR sort gate)” value was “high polyreactivity”.

In the case of “QVQLVESGGGLVQAGGSLRLSCAAYGIIFTWYVMGWYRQAPGKERELVAAISASGASTYYADSVKGRFTISRDNAKNTVYLQMNSLKPEDTAVYYCAARYGWYPVRQPRPGGDYWGQGTQVTVSS”, the “polyreactivity (PSR sort gate)” value is reported as “high polyreactivity”.

On to “QVQLVESGGGLVQAGGSLRLSCAAYGRIFAYYAMGWYRQAPGKERELVAAISSGGTTNYADSVKGRFTISRDNAKNTVYLQMNSLKPEDTAVYYCNADGWRRSRQYYYWGQGTQVTVSS”, for which the “polyreactivity (PSR sort gate)” value was “low polyreactivity”.

As to “QVQLVESGGGLVQAGGSLRLSCAAYGRIFGVYAMGWYRPAPGKERELVAAIERRGGTTYYADSVKGRITISRDMAKNTVYLQLNSLKPEDTAVYYCATGSIAAGHYAYNYWGQGTQVTVSS”, the “polyreactivity (PSR sort gate)” value was “high polyreactivity”.

Consider “QVQLVESGGGLVQAGGSLRLSCAAYGRIFLLYAMGWYRQAPGKERELVAGISIGGSTNYADSVKGRFTISRDNAKNTVYVQMNSLKPEDTAVYYCNAKRYFASRKNGYYYWGQGTQVTVSS”, for which the “polyreactivity (PSR sort gate)” value was “high polyreactivity”.

Take “QVQLVESGGGLVQAGGSLRLSCAAYGRIFTINAMGWYRQAPGKERELVASIRSTGGSTYYADSVKGRFTISRDNAKNTVYLQMNSLKPEDTAVYYCAADGGVAWGYGYWGQGTQVTVSS”: the “polyreactivity (PSR sort gate)” value is listed as “low polyreactivity”.

As for “QVQLVESGGGLVQAGGSLRLSCAAYGRIFYAYAMGWYRQAPGKERELVAAITNGGGTTYYADSVKGRFTISRDNAKNTVYLQMNSLKPEDTAVYYCNAVRYTIAHGFYYVPEDYWGQGTQVTVSS”, the “polyreactivity (PSR sort gate)” value is recorded as “low polyreactivity”.

As to “QVQLVESGGGLVQAGGSLRLSCAAYGRIFYRNAMGWYRQAPGKERELVAAISRSGGSTYYADSVKGRFTISRDNAKNTVYLQMNSLNPEDTAVYYCNAYRYLQSGPPRYREHGSWGQGTQVTVSS”, the “polyreactivity (PSR sort gate)” value was “low polyreactivity”.

For the sequence “QVQLVESGGGLVQAGGSLRLSCAAYGRIFYYNRMGWYRQAPGKERELVADISFSDGSTYYADSVKGRFTISRDIAKNTVYLQMNSLKPEDTAVYYCAAVIGYDYDYWGQVTQVTVSS”, the “polyreactivity (PSR sort gate)” value was “low polyreactivity”.

Consider “QVQLVESGGGLVQAGGSLRLSCAAYGRIIYLNAMGWYRQAPGKERELVATISSSGGTTNYADSVKGRFTISRDNAKNTVYLQMNSLKPEDTAVYYCAAKFVGTTVSEYGYWGQGTQVTVSS”, for which the “polyreactivity (PSR sort gate)” value is “low polyreactivity”.

Turning to “QVQLVESGGGLVQAGGSLRLSCAAYGRILSLYAMGWYRQAPGKERQLVAAIRWSGSRTYYADSVKGRFTISRDNAKNTVYLQMNSLKPEDTAVYYCAARDSTNLLSGYTHYYWGQGTQVTVSS”, the “polyreactivity (PSR sort gate)” value is on record as “high polyreactivity”.

Take “QVQLVESGGGLVQAGGSLRLSCAAYGRTFARYAMGWYRQAPGKERELVAAISKSGVSTYYADSVKGRFTISRDHAKNTLYLQMNSLKPEDTAVYYCAAYVRQLQVVRGVSNYDSWGQGTQVTVSS”: the “polyreactivity (PSR sort gate)” value is on record as “high polyreactivity”.

On to “QVQLVESGGGLVQAGGSLRLSCAAYGRTFDTYAMGGYRQAPGKERELVAAITKGGGSTYYADSVKGRFTISRDNAKNTVYLQMNSLKPEDTAVYYCNDRVHGEYFHGIRYYYWGQGTQVTVSS”, for which the “polyreactivity (PSR sort gate)” value is recorded as “low polyreactivity”.

On to “QVQLVESGGGLVQAGGSLRLSCAAYGRTFGLNAMGWYRQAPGKERELVAAISSSGGSTYYADSVKGRFTISRDNAKNTVYLQMNSLKPEDTAVYYCARVPLHRYGYWGQGTQVNVSS”, for which the “polyreactivity (PSR sort gate)” value is given as “high polyreactivity”.

For the sequence “QVQLVESGGGLVQAGGSLRLSCAAYGRTFGRYAMGWYRQAPGKERELVAVINGGGSTYYADSVKGRFTISRDNAKNTVYLQMNSLKPEDTAVDYCAVGGYTRTGGWFDYWGQGTQVTVSS”, the “polyreactivity (PSR sort gate)” value is recorded as “high polyreactivity”.

On to “QVQLVESGGGLVQAGGSLRLSCAAYGRTFGYNTMGWYRQAPGKERELVATIRTNGVSTYYADSVKGRFTISRDNAKNTVYLQMNSLKPEDTAVYYCNADPHDQYDYWGQGTQVTVSS”, for which the “polyreactivity (PSR sort gate)” value is “low polyreactivity”.

For the sequence “QVQLVESGGGLVQAGGSLRLSCAAYGRTFWNYAMGWYRQAPGKERELVAAISSSGGTTYYADSVKGRFTISRDNAKNTVYLQMNSLKPEDTAVYYCAATGVSKPQRSFVYWGQGTQVTVSS”, the “polyreactivity (PSR sort gate)” value is reported as “low polyreactivity”.

In the case of “QVQLVESGGGLVQAGGSLRLSCAAYGRTLRYYAMGWYRQAPGKERELVAAISSGGTTNYADSVKGRFTISRDNAKNTVYLQMNSLKPEDTAVYYCAARYRRFRFTQYDYWGQGTQVTVSS”, the “polyreactivity (PSR sort gate)” value is “high polyreactivity”.

For the sequence “QVQLVESGGGLVQAGGSLRLSCAAYGRTSRRNAMGWYRQAPGKERELVAAINRTGGTTYYADYVKGRFTISRDNAKNTVYLQMNSLKPVVNAVYYCAAGAPLSTPRGTTYRYYYWGQGTQVTVSS”, the “polyreactivity (PSR sort gate)” value is reported as “high polyreactivity”.

As to “QVQLVESGGGLVQAGGSLRLSCAAYGSIFALYAMGWYRPAPGKERELVARISSGGSTYYADSVKGRFTISRDNAKNTVYLQMNSLKPEDTAVYYCARYHKTHAVLRYDYWGQGTQVTVSS”, the “polyreactivity (PSR sort gate)” value was “low polyreactivity”.

As to “QVQLVESGGGLVQAGGSLRLSCAAYGSIFGVNVMGWYRQSPGKERELVAAIDVSDTSTYYADSVKGRFTMSRDNAKNTVYLQLNSLKPDDTAVYYCAADGLRWWPFEYRFTFDYWGQGTQVTVSS”, the “polyreactivity (PSR sort gate)” value is on record as “low polyreactivity”.

As for “QVQLVESGGGLVQAGGSLRLSCAAYGSIFKRYAMGWYRQAPGKERELVASNSSSGSSTNYADSVKGRFTISRDTAKNTVYLQMNSLKPEDTSVYYCAADTKASGTPVYYSYLYDYWGQGTHVTVSS”, the “polyreactivity (PSR sort gate)” value is “high polyreactivity”.

For the sequence “QVQLVESGGGLVQAGGSLRLSCAAYGSIFWSYAMGWYIQAPGKERELVAGITRSGGSTYYSDSVKGRFTISRDNAKNPVYLQMISLKPEDTAVYYCNKAFGGDKYSGSYEYWGQGNQVTVSS”, the “polyreactivity (PSR sort gate)” value is “high polyreactivity”.

Take “QVQLVESGGGLVQAGGSLRLSCAAYGSIIHANAMGWYRQAPGKERELVAAITGDGSTYYADSVKGRFTISRDNAKNTVYLQMNSLKPEDTAVYYCNAEYYSTYDSWGQGTQVTVSS”: the “polyreactivity (PSR sort gate)” value is given as “low polyreactivity”.

On to “QVQLVESGGGLVQAGGSLRLSCAAYGSILGIYAMGGYRQAPGKERELVAAIRTSSASTYYADSVKGRFTISRDNAKNTVYLQMNSLKPEDSAVYYCAAYAFSYTPYYSWGQGTQVTVSS”, for which the “polyreactivity (PSR sort gate)” value was “high polyreactivity”.

For the sequence “QVQLVESGGGLVQAGGSLRLSCAAYGSTFFLYAMGWYRQAPGKVRELVAAITYTDGDTYYADSVKGRFTISRDNAKHTVYLQMNSLKPEDTAVYYCNAGGDEPVYGSGYDYWGQGTQVNVSS”, the “polyreactivity (PSR sort gate)” value is on record as “low polyreactivity”.
